US20220396614A1

Biological target: NANP 5.5-mer peptide, NP(NANP)5, representative of the PfCSP central repeat (Plasmodium falciparum (NF54))
Experiment: SPR (FIG. 5E)

mAb 317 (antibody) showed a Kd of less than 0.1 nM.
For mAb CIS43 (antibody), the fold lower affinity than mAb 4493 was 100 fold.
